Substitutions are numbered along the chain they refer to.
Assays:
Assay in all cases: EMSA
Conditions in all cases: 8-oxo-7,8-dihydroguanosine at positions 3,7,11,15,19,23
[1] = biological target: T1, PNPase GFT S76G;F78T (Escherichia coli K12) (UniProt P05055)
T1 sequence: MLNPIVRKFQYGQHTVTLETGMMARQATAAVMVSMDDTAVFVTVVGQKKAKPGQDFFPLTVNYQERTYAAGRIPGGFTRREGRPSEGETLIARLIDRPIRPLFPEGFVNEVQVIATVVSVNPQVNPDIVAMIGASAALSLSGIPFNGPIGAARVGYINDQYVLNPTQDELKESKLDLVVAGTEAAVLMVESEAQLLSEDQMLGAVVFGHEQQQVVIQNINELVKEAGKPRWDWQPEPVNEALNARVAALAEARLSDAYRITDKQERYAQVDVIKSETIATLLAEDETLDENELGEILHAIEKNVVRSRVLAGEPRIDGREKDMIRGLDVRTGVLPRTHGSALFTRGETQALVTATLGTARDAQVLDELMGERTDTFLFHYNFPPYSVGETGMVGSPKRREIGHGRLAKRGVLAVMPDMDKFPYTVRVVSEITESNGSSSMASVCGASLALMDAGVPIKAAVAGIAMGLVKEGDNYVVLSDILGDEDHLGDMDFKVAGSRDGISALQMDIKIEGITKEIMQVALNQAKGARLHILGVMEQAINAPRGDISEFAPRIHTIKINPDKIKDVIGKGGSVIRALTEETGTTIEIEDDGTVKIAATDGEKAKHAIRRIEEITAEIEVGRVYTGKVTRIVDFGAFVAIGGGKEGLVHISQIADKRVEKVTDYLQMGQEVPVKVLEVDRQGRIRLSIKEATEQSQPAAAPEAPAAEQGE

[2] = biological target: T2, PNPase wild type (SFF) (Escherichia coli K12) (UniProt P05055)
T2 sequence: T1 sequence with G76S, T78F

[3] = biological target: T3, PNPase NFH S76N;F78H (Escherichia coli K12) (UniProt P05055)
T3 sequence: T1 sequence with G76N, T78H

[4] = biological target: T4, PNPase NYM S76N;F77Y;F78M (Escherichia coli K12) (UniProt P05055)
T4 sequence: T1 sequence with G76N, F77Y, T78M

## NNGNNNGNNNGNNNGNNNGNNNGN [8-oxoG RNA 24-mer [NN(8-oxoG)N]6]
[1]
  binding signal (Kd ratio unmodified/8-oxoG (selectivity)): 2.3
[2]
  binding signal (Kd ratio unmodified/8-oxoG (selectivity)): 1.8
[3]
  binding signal (Kd ratio unmodified/8-oxoG (selectivity)): 2.5
[4]
  binding signal (Kd ratio unmodified/8-oxoG (selectivity)): 2.8

— paper PMC6965710
